The target in this test is WDR5_(WD40), as used in the ITC (human). Nature of the test: ITC. On the technique in general: In ITC the heat of successive injections is recorded.

B1: unmodified H3 tail peptide of the ITC (H3K4unmodQ5unmod) (peptide)
chain: ARTKQTARKSTGGKA
modifications: not checked
A word on the Kd: it is the constant that tells how readily two partners part at equilibrium. Low values mean a tighter complex, high ones a looser complex. The molecule B1 showed a Kd of 20.2 µM.

These data come from paper doi:10.1101/2022.12.06.519310.
